Data from patent publication US7521540B2, “CYR61 compositions and methods” (Munin Corporation, priority 1996, dated 2009).
Values belong to the molecule of their own block, whether it stands above or below them.

Experiments:
[1] = system: 1064SK primary human foreskin fibroblasts; assay: Fibroblast adhesion assay (methylene blue, A620); type: cell-based; conditions: for support of 1064SK fibroblast adhesion: protein coated on wells; for inhibition by anti-α6 antibody of binding mediated by the coated protein: anti-α6 20 μg/ml
Protocol: The ability of Cyr61 to mediate cell adhesion in normal fibroblasts was investigated. Microtiter wells were coated with purified recombinant Cyr61 protein, and 1064SK primary human foreskin fibroblasts were allowed to adhere under serum-free conditions. […] 50 μl cell suspensions were plated on microtiter wells coated with varying concentrations (0.5-5.0 μg/ml) of Cyr61 protein. After incubation at 37° C. for 30 minutes, adherent cells were fixed and stained with methylene blue.
In another experiment, microtiter wells were coated with either BSA, Cyr61 (2 μg/ml), or vitronectin (VN; 0.5 μg/ml) and blocked with affinity-purified anti-Cyr61 antibodies for one hour at 37° C. before 1064SK cells were plated.
The effects of divalent cations in cell adhesion to Cyr61 was also investigated. […] Data are means from triplicate determinations. […] Inhibition by Ca^2+ is characteristic of adhesion through some members of the β1 family of integrins, including receptors that bind type I collagen, laminin, and vitronectin (integrins α2β1, α6β1, and αVβ1) in fibroblasts, as well as the lymphocyte-specific integrin αLβ2.
The effects of RGD peptides on Cyr61-mediated fibroblast binding was tested by plating cells in wells coated with Cyr61 (2 μg/ml). Type I collagen (2 μg/ml) or vitronectin (0.5 μg/ml), 2 mM GRGDSP or GRGESP peptide was then added.
Cells were also pre-incubated with 40 μg/ml monoclonal antibodies against the integrin α5 or the integrin αV subunits at room temperature for 30 minutes, then plated on wells coated with Cyr61 (2 μg/ml), vitronectin (0.5 μg/ml) or fibronectin (FN, 1 μg/ml). […] The data are means, representative of three experiments.
The 1064 SK cells were also analyzed using the monoclonal antibody JBIA, which binds the β1 integrin subunit. Cells were pre-incubated with the antibody (50 μg/ml) before plating on microtiter wells coated with Cyr61 (2 μg/ml), Type I collagen (2 μg/ml), or vitronectin (0.5 μg/ml). […] Data are means, representative of three experiments.
To identify the specific β1 integrin that mediates fibroblast adhesion to Cyr61, the inhibitory effects of function-blocking monoclonal antibodies were tested against various integrin α subunits. […] The data are means, representative of at least three experiments.

[2] = system: 1064SK human skin fibroblasts; assay: Human skin fibroblast migration; type: cell-based; conditions: 1064SK cells
[3] = system: primary human foreskin fibroblasts; assay: Cyr61-regulated gene expression (multi-gene blot, Northern); type: cell-based
Protocol: Purified, soluble, recombinant Cyr61 protein was added to cultures of primary human foreskin fibroblasts for 24 hours. From these cells, mRNA was isolated for preparation of probes to hybridize to a multi-gene blot (Clontech Atlas Human Array 1.2 cat no. 7850-1) containing about 650 genes. The levels of expression of these genes in Cyr61-treated cells were compared to that of control cells. […] These findings have been confirmed by Northern blot analysis showing increases or decreases of the mRNAs in question in Cyr61-treated cells. A time course of expression changes has been established. In particular, by 6 hours after its addition, Cyr61 has induced expression of VEGF-A mRNA and the induction is still evident at 12 and 24 hours post-addition. Also at 12 and 24 hours post-addition, Cyr61 has induced expression of VEGF-A polypeptide. With respect to VEGF-C, induction of mRNA is clearly evident 12 hours after addition of Cyr61 and the induction persists at least through 24 hours post-addition. Cyr61 is expected to induce the expression of VEGF-C polypeptide with similar kinetics.

[4] = system: NIH 3T3 fibroblasts; assay: Thymidine incorporation (mitogen potentiation), NIH 3T3; type: cell-based, mouse; conditions: bFGF 15 ng/ml or PDGF-BB 30 ng/ml
Protocol: More specifically, NIH 3T3 fibroblast cells were plated on 24-well plates at 3×10^4 cells/well and grown in DMEM with 10% fetal bovine serum (Intergen Co., Purchase, N.Y.) for 3-4 days and incubated with medium containing 0.2% FBS for the following 48 hours. The following compounds, at the parenthetically noted final concentrations, were then added to the plated cells in fresh DMEM containing 0.2% fbs and [^3H]-thymidine (1 μCi/ml final concentration; ICN Biomedicals, Inc., Costa Mesa, Calif.): bFGF (15 ng/ml), PDGF-BB (30 ng/ml), and murine Cyr61 (0.5-5 μg/ml). These compounds were added to individual plates according to the following pattern: 1) no supplementation; 2) murine Cyr61; 3) bFGF; 4) murine Cyr61 and bFGF; 5) PDGF-BB; and 6) murine Cyr61 and PDGF. After 18-20 hours of incubation, cells were washed with PBS and fixed with 10% trichloroacetic acid. DNA was dissolved in 0.1 N NaOH and thymidine incorporation was determined. […] Without any supplements, 3T3 cells incorporated approximately 1.8×10^4 cpm of [^3H]-thymidine, in the presence or absence of Cyr61. Cells exposed to bFGF alone incorporated about 1.2×10^5 cpm; cells contacting bFGF and murine Cyr61 incorporated 2×10^5 cpm. Cells receiving PDGF-BB incorporated about 1.2×10^5 cpm; and cells exposed to PDGF-BB and murine Cyr61 incorporated approximately 2.4×10^5 cpm.
DNA synthesis for HUVE cells and NIH 3T3 fibroblasts was measured by thymidine incorporation as described previously (Kireeva et al., [1996]) with minor modifications. HUVE cells were grown in 24-well plates to a subconfluent state, serum-starved for 24 hours and treated with F12K medium containing 10% fetal bovine serum (FBS), 1 μCi/ml [^3H]-thymidine and 10 ng/ml basic Fibroblast Growth Factor (bFGF) (Gibco-BRL, Inc.) with various concentrations of Cyr61 and Fisp12 as indicated. NIH 3T3 fibroblasts were grown to subconlfluence, serum-starved for 48 hours, and treated with Minimal Essential Medium (MEM) containing 0.5% FBS, 1 μCi/ml [^3H]-thymidine, bFGF and various concentrations of Cyr61 or Fisp12. Thymidine incorporation into the trichloroacetic acid-insoluble fraction was determined after 24 hour incubation. Logarithmically grown mink lung epithelial cells (Mv1lu, CCL64) were treated with various concentrations of TGF-β1 (Gibco-BRL) and 2 μg/ml of Cyr61 or Fisp12 for 18 hours; [^3H]-thymidine was then added to 1 μCi/ml for 2 hours. Thymidine incorporation was determnined as described above.

[5] = Heparin binding assay (salt elution from heparin-Sepharose/agarose)

B1: heparatinase: Enzyme used to pretreat cells (heparinase I, 2 U/ml) (protein, UniProt Q05819 22-384, looked up)
Heparin lyase I: QQKKSGNIPYRVNVQADSAKQKAIIDNKWVAVGINKPYALQYDDKLRFNGKPSYRFELKAEDNSLEGYAAGETKGRTELSYSYATTNDFKKFPPSVYQNAQKLKTVYHYGKGICEQGSSRSYTFSVYIPSSFPDNATTIFAQWHGAPSRTLVATPEGEIKTLSIEEFLALYDRMIFKKNIAHDKVEKKDKDGKITYVAGKPNGWKVEQGGYPTLAFGFSKGYFYIKANSDRQWLTDKADRNNANPENSEVMKPYSSEYKTSTIAYKMPFAQFPKDCWITFDVAIDWTKYGKEANTILKPGKLDVMMTYTKNKKPQKAHIVNQQEILIGRNDDDGYYFKFGIYRVGNSTVPVTYNLSGYSETAR
1064SK adhesion to Cyr61-coated wells with agent ([1]; Cyr61 2 μg/ml, agent at the level stated in the block, Mg2+ 5.0 mM after EDTA): 0.13 A620 | 1064SK adhesion to fibronectin-coated wells with agent ([1]; fibronectin 1 μg/ml): 0.66 A620 | 1064SK adhesion to vitronectin-coated wells with agent ([1]; vitronectin 0.5 μg/ml): 0.63 A620

B2: Cyr61 NT: Human Cyr61 fragment with domains I, II and III, lacking heparan binding domain IV (protein)
chain: TCPAACHCPLEAPKCAPGVGLVRDGCGCCKVCAKQLNEDCSKTQPCDHTKGLECNFGASSTALKGICRAQSEGRPCEYNSRIYQNGESFQPNCQHQCTCIDGAVGCIPLCPQELSLPNLGCPNPRLVKVTGQCCEEWVCDEDSIKDPMEDQDGLLGKELGFDASEVELTRNNELIAVGKGRSLKRLPVFGMEPRILYNPLQGQKCIVQTTSWSQCSKTCGTGISTRVTNDNPECRLVKETRICEVRPCGQPVYSSLK
migration of human fibroblasts [2]: did support fibroblast migration | migration of human fibroblasts ([2]; listed as human Cyr61 NT): induced 1064SK cell migration | support of 1064SK fibroblast adhesion [1]: did not support fibroblast adhesion | induction of VEGF, MMP1, MMP3 etc. [3]: do not induce the expression of the above-referenced genes

B3: PDGF-BB: Platelet-Derived Growth Factor, BB isoform (protein, UniProt P01127 82-190, looked up)
Platelet-derived growth …: SLGSLTIAEPAMIAECKTRTEVFEISRRLIDRTNANFLVWPPCVEVQRCSGCCNNRNVQCRPTQVQLRPVQVRKIEIVRKKPIFKKATVTLEDHLACKCETVAAARPVT
modifications: BB homodimer
notes: Platelet-Derived Growth Factor, BB isoform
[3H]-thymidine incorporation, growth factor alone [4]: about 1.2×10^5 cpm

B4: decorin: Decorin from Sigma (protein, UniProt P21793 31-360, looked up)
Decorin: DEASGIGPEEHFPEVPEIEPMGPVCPFRCQCHLRVVQCSDLGLEKVPKDLPPDTALLDLQNNKITEIKDGDFKNLKNLHTLILINNKISKISPGAFAPLVKLERLYLSKNQLKELPEKMPKTLQELRVHENEITKVRKSVFNGLNQMIVVELGTNPLKSSGIENGAFQGMKKLSYIRIADTNITTIPQGLPPSLTELHLDGNKITKVDAASLKGLNNLAKLGLSFNSISAVDNGSLANTPHLRELHLNNNKLVKVPGGLADHKYIQVVYLHNNNISAIGSNDFCPPGYNTKKASYSGVSLFSNPVQYWEIQPSTFRCVYVRAAVQLGNYK
concentration that inhibited cell adhesion to Cyr61 ([1]; in cell suspension): 10 µg/mL

inhibition by anti-α6 antibody of binding mediated by the coated protein [1]: 69%
B5: H1: Cyr61 variant, lysine/arginine of heparin-binding motif at residues 280-290 replaced with alanine (protein)
chain: TCPAACHCPLEAPKCAPGVGLVRDGCGCCKVCAKQLNEDCSKTQPCDHTKGLECNFGASSTALKGICRAQSEGRPCEYNSRIYQNGESFQPNCKHQCTCIDGAVGCIPLCPQELSLPNLGCPNPRLVKVSGQCCEEWVCDEDSIKDSLDDQDDLLGLDASEVELTRNNELIAIGKGSSLKRLPVFGTEPRVLFNPLHAHGQKCIVQTTSWSQCSKSCGTGISTRVTNDNPECRLVKETRICEVRPCGQPVYSSLKKAGAACSATAKPEPVRFTYAGCSSVKKYRPKYCGSCVDGRCCTPLQTRTVKMRFRCEDGEMFSKNVMMIQSCKCNYNCPHPNEASFRLYSLFNDIHKFRD
heparin binding [5]: somewhat decreased heparin-binding affinities | support of 1064SK fibroblast adhesion [1]: able to support fibroblast adhesion

inhibition by anti-α6 antibody of binding mediated by the coated protein [1]: 70%
B6: H2: Cyr61 variant, heparin-binding motif at residues 305-310 replaced with alanine (protein)
chain: TCPAACHCPLEAPKCAPGVGLVRDGCGCCKVCAKQLNEDCSKTQPCDHTKGLECNFGASSTALKGICRAQSEGRPCEYNSRIYQNGESFQPNCKHQCTCIDGAVGCIPLCPQELSLPNLGCPNPRLVKVSGQCCEEWVCDEDSIKDSLDDQDDLLGLDASEVELTRNNELIAIGKGSSLKRLPVFGTEPRVLFNPLHAHGQKCIVQTTSWSQCSKSCGTGISTRVTNDNPECRLVKETRICEVRPCGQPVYSSLKKGKKCSKTKKSPEPVRFTYAGCSSVVAAYAPYCGSCVDGRCCTPLQTRTVKMRFRCEDGEMFSKNVMMIQSCKCNYNCPHPNEASFRLYSLFNDIHKFRD
heparin binding [5]: somewhat decreased heparin-binding affinities | support of 1064SK fibroblast adhesion [1]: able to support fibroblast adhesion
